Experimental data taken from US7045604B2, “Family of genes encoding apoptosis-related peptides, peptides encoded thereby and methods of use thereof” (Tanox, Inc., priority 1996, dated 2006).
Numbered stars: 1 amine (or outer) side, 2 acyl side, 3 side chain; on linkers, the order of the positions; unused ones are H or OH. Bridge positions count the residues as written; N and C are the ends. Square brackets hold non-standard residues; d marks the D form. Peptide text beside a SMILES is read from it. I, II: the chains in the order shown. Actinocin(9to1) = Cc1c2oc3c(C)ccc(C(=O)[*:1])c3nc-2c(C(=O)[*:2])c(N)c1=O; NMeV = CN[C@H](C(=O)O)C(C)C; Sar = CNCC(=O)O

Columns and labels:
C3H/10T1/2 cells = experiment: Apoptosis of exponentially proliferating or quiescent 10T1/2 cells (adherent / non-adherent cell count); assay type: cell-based, mouse; conditions: for apoptosis / cell death: quiescent 10T1/2 cells arrested in G0
Method: C3H/10T1/2 cells were grown in Eagle's basal medium (BME) supplemented with 10% heat-inactivated fetal bovine serum (FBS) at 37° C. in a humidified 5% CO2 atmosphere without antibiotics. Cells were plated at 2×10^3 cells/mL and fed every 3–4 days. Approximately 2 weeks after the initial seeding, the cells were completely quiescent and few if any mitotic cells were present. To analyze the effect of serum deprivation or cycloheximide treatment, the exponentially proliferating (approximately 75% confluent) or quiescent cultures were transferred to serum-free medium or medium supplemented with 10 μg/mL cycloheximide. At 24 hours, the apoptotic (i.e. non-adherent) cells and the non-apoptotic (i.e. adherent) cells were collected separately and their amounts were evaluated using a cell counter (Coulter Counter® ZM). Serum free conditioned medium was obtained after 24 hour incubation of quiescent 10T1/2 cells in BME. The RNA was isolated by the guanidine-isothiocyanate method described in Chomezinski and Sacchi (1987) Anal. Biochem., 162:156–59. 20 μg samples of total RNA were subjected to electrophoresis in a 1.2% agarose formaldehyde gel. Sambrook et al. (eds) (1989).

msarp1 = msarp1 expression in serum deprived exponentially growing 10T1/2 cells (Northern hybridization); assay type: cell-based, mouse; conditions: cells grown in serum free media supplemented with TPA
Method: Isolated DNA fragments were labeled with [^32P]dCTP (3000 Ci/mmol, Amersham) in a random priming reaction according to Feinberg and Vogelstein, (1982), supra. Hybridization was carried out according to the standard protocol described in Sambrook et al. (1989), supra. The membranes were washed two times with 2×SSC at room temperature for 30 minutes. Following two additional washes at 56° C. in 0.1×SSC, 0.1% SDS, the membranes were autoradiographed onto a Kodak X-Omat® films.
Since it has previously been shown that media conditioned with exponentially growing 10T1/2 cells also prevents apoptosis, we also analyzed msarp1 expression in serum deprived exponentially growing cells. RNA was isolated at different time points after removal of serum.

[1] = system: MCF7 breast carcinoma cells; experiment: Viability / apoptosis of MCF7 cells transfected with hsarp2 in pcDNA3; assay type: cell-based, human
Method: The NotI/XbaI fragment of hsarp2 was inserted into the NotI/XbaI sites of the mammalian expression vector pcDNA3 (Invitrogen). MCF7 breast carcinoma cells were transfected with this construct using LipofectAMINE reagent (Gibco BRL) according to manufacturer's protocol. The percentage of living cells was estimated by counting the relative amount of adherent cells using a Coulter Counter® (NZ). […] The cells were also treated with hTNF (50 ng/ml) and adriamycin (1 μg/ml). The results obtained are depicted in FIG. 6.

β-catenin = experiment: Intracellular β-catenin in MCF7 transfectants (Western immunoblot, immunohistochemistry); assay type: cell-based, human; conditions: for intracellular concentration of β-catenin: Western immunoblot, MCF7 transfectants vs pcDNA3 control
Method: To determine whether SARPs interfered with Wnt-frizzled protein interaction, the expression of β-catenin in MCF7-transfectants was compared. The experiment was performed as follows. Cell Cultures. MCF7 human breast adenocarcinoma cells were plated at 2×10^5 cells/ml and cultured in Modified Eagle Medium (MEM) supplemented with 10% FBS. Serum free conditioned medium was obtained after 24 hour incubation of quiescent MCF7 cells in MEM.
(§1) Transfection of MCF7. MCF7 cells were transfected with the pcDNA3 mammalian expression vector (Invitrogen), containing either no insert, msarp1, or hsarp2 cDNAs, using LipofectAMINE reagent (Gibco) according to manufacturer's protocol. Stable transfectants and two-three weeks later single cell originated clones were selected with 1 mg/ml G418 and expression of the respective genes was confirmed by Northern hybridization.
Immunohistochemistry. Paraformaldehyde-fixed transfected MCF7 cells grown on 4-well Lab-Tek® chamber slides were probed by anti-β-catenin monoclonal IgG (Transduction Laboratories). Staining was performed by avidin-biotin-peroxydase system (Vector Laboratories) using diaminobenzidine as a substrate. IgG isolated from preimmune serum was used as a negative control.
Western Immunoblot. For Western analysis the samples of conditioned media were concentrated using CENTRIPREP®-10 concentrators (AMICON). Cells were harvested in extraction buffer consisting of 20 mM tris-HCl (pH 7.8), 5 mM MgCl2, 250 mM sucrose, 1% NP40. After 1 hour incubation on ice extracts were clarified by centrifugation. Protein concentrations of the cellular extracts were determined using DC Protein Assay kit (Bio Rad). Equal amount of proteins were subjected to SDS/PAGE (Sambrook, J., et al. (1989) Molecular Cloning: A Laboratory Manual (Second ed.) (CSHL Press), transferred onto nitrocellulose membranes, and probed with the anti-GST-mSARP1 polyclonal affinity purified IgG (1 μg/mL) or anti-β-catenin monoclonal IgG (Transduction Laboratories).

[2] = system: MCF7 breast adenocarcinoma cell line; experiment: Sensitivity of stably transfected MCF7 cells to cytotoxic stimuli; assay type: cell-based, human
Description: The MCF7 breast adenocarcinoma cell line was chosen as a model to study the involvement of SARP proteins in the processes of apoptosis. The programmed cell death of these cells induced by different agents has been well characterized. Zyed et al. (1994) Cancer Res. 54:825–831. […] MCF7 cells were stably transfected with a pcDNA3 mammalian expression vector bearing full length msarp1 or hsarp2. The transfectants expressing msarp1 and hsarp2 were selected by Northern hybridization. […] Hannun and Obeid (1995) T. Biochem. Sci. 20:73–7; and Kolesnick and Fuks (1995) J. Exp. Med. 181:1949–52.
as §1

COc1ccc(C[C@H](N)C(=O)N[C@H]2[C@@H](O)[C@H](n3cnc4c(N(C)C)ncnc43)O[C@@H]2CO)cc1 [puromycin]
apoptosis / cell death (C3H/10T1/2 cells): Apoptosis of G0 is also induced

α-amanitin
apoptosis / cell death (C3H/10T1/2 cells): Apoptosis of G0 is also induced

CCCCCCCCCCCCCC(=O)O[C@@H]1[C@@H](C)[C@@]2(O)[C@@H](C=C(CO)C[C@]3(O)C(=O)C(C)=C[C@@H]23)[C@H]2C(C)(C)[C@]12OC(C)=O [TPA]
induction of msarp1 message (msarp1): No induction of msarp1

C[C@@H]1C[C@@H]([C@H](O)CC2CC(=O)NC(=O)C2)C(=O)[C@@H](C)C1 [cycloheximide]
apoptosis (C3H/10T1/2 cells; exponentially proliferating 10T1/2 cells, serum deprivation): apoptosis is delayed | apoptosis / cell death (C3H/10T1/2 cells): rapidly induces death

Cc1c2oc3c(C)ccc(C(=O)N[C@@H]4C(=O)N[C@H](C(C)C)C(=O)N5CCC[C@H]5C(=O)N(C)CC(=O)N(C)[C@@H](C(C)C)C(=O)O[C@@H]4C)c3nc-2c(C(=O)N[C@@H]2C(=O)N[C@H](C(C)C)C(=O)N3CCC[C@H]3C(=O)N(C)CC(=O)N(C)[C@@H](C(C)C)C(=O)O[C@@H]2C)c(N)c1=O [actinomycin D] (I: T[dV]P[Sar][NMeV] / II: T[dV]P[Sar][NMeV]; ester I:1-I:C, II:1-II:C; linker I:N-II:N via Actinocin(9to1))
apoptosis / cell death (C3H/10T1/2 cells): Apoptosis of G0 is also induced

B1: hSARP2: human secreted apoptosis related protein of 314 amino acids encoded by hsarp2 cDNA, SEQ ID NO: 18 (protein)
chain: SEYDYVSFQSDIGPYQSGRFYTKPPQCVDIPADLRLCHNVGYKKMVLPNLLEHETMAEVKQQASSWVPLLNKNCHAGTQVFLCSLFAPVCLDRPIYPCRWLCEAVRDSCEPVMQFFGFYWPEMLKCDKFPEGDVCIAMTPPNPTEASKPQGTTVCPPCDNELKSEAIIEHLCASEFALRMKIKEVKKENGDKKIVPKKKKPLKLGPIKKKDLKKLVLYLKNGADCPCHQLDNLSHHFLIMGRKVKSQYLLTAIHKWDKKNKEFKNFMKKMKNHECPTFQSVFK
percentage of viable cells ([1]; MCF7 transfected with pcDNA3-hsarp2, adherent cells counted): decrease in the percentage of viable cells | programmed cell death ([1]; breast carcinoma cell line, increased expression of hsarp2, dose dependent): increase programmed cell death | percentage of cells undergoing apoptosis in culture ([1]; hsarp2 in expression vector transfected into human cell lines): increases | intracellular concentration of β-catenin (β-catenin): decreases the intracellular concentration of β-catenin | cell sensitivity to apoptosis induced by TNF [2]: sensitized the cells to apoptosis | cell sensitivity to apoptosis induced by ceramide [2]: sensitized the cells to apoptosis | growth rate and cell cycle vs parental cells [2]: not significantly different

B2: mSARP1: mouse secreted apoptosis related protein of 295 amino acids encoded by msarp1, SEQ. ID. NO: 2 (protein)
chain: MPRGPASLLLLVLASHCCLGSARGLFLFGQPDFSYKRTNCKPIPANLQLCHGIEYQNMRLPNLLGHETMKEVLEQAGAWIPLVMKQCHPDTKKFLCSLFAPVCLDDLDETIQPCHSLCVQVKDRCAPVMSAFGFPWPDMLECDRFPQDNDLCIPLASSDHLLPATEEAPKVCEACKTKNEDDNDIMETLCKNDFALKIKVKEITYINRDTKIILETKSKTIYKLNGVSERDLKKSVLWLKDSLQCTCEEMNDINAPYLVMGQKQGGELVITSVKRWQKGQREFKRISRSIRKLQC
intracellular concentration of β-catenin (β-catenin): not sensitive enough to discern a significant difference | concentration of β-catenin (β-catenin; immunohistochemistry, MCF7 transfectants): higher concentration of β-catenin | cell sensitivity to apoptosis induced by TNF [2]: higher resistance | cell sensitivity to apoptosis induced by ceramide [2]: higher resistance | growth rate and cell cycle vs parental cells [2]: not significantly different
